Measured values from patent US20100311820, “NUCLEIC ACID MODULATORS OF GLYCOPROTEIN VI” (Regado Biosciences, Inc, published 2010).

How the values were obtained:
[1] = molecular target: T1, Glycoprotein VI extracellular domain (Gln21-Lys267) (Homo sapiens, UniProt Q9HCN6 SEQ:1-247); experiment: filter; settings: tags: C-terminal His6; R&D Systems 3627-GP; label: 5'-32P
T1 chain: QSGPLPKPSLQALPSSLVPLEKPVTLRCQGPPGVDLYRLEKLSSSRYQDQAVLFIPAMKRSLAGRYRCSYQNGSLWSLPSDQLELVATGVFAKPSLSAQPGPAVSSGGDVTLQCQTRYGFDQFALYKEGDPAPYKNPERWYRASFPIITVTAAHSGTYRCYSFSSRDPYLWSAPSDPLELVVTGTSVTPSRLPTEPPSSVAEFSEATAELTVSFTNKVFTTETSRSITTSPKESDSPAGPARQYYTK
Description: (§1) Enrichment of the ligand libraries for GPVI was monitored in direct binding studies utilizing radiolabeled ligand RNA from respective rounds of SELEX and soluble GPVI. Binding studies were performed with trace P³² end-labeled RNA added to serial dilutions of GPVI in Binding Buffer F. To prepare radiolabeled RNAs for binding studies, one hundred picomoles of RNA was dephosphorylated with Bacterial Alkaline Phopshatase at 50° C. for 1 hour. The reaction was phenol:chloroform:isoamyl alcohol (25:24:1) extracted, chloroform: isoamyl:alcohol (24:1) extracted, and ethanol precipitated. Three pmoles of dephosphorylated RNA was end labeled with T4 Poylnucleotide Kinase with supplied buffer, and 20 μCi of γ-P³²-ATP and subsequently cleaned with a Biorad MicroBio Spin P-30 spin column. End-labeled RNA was diluted to a final concentration of 2000 cpm/μL and heat denatured at 65° C. for 5 minutes. RNA and GPVI dilutions were equilibrated at 37° C. prior to use. RNA (5 μL) was added to varying concentrations of GPVI (15 μL) at 37° C. and incubated together for 5 to 15 minutes. The complexed RNA/GPVI protein mixture was then loaded over a Protean BA85 nitrocellulose membrane, overlayed on a Genescreen Plus Nylon membrane, in a 96 well vacuum manifold system with washing. The membranes were exposed to a phosphorimager screen, scanned, and quantitated with a Molecular Dynamics Storm 840 Phosphorimager. The fraction bound was calculated by dividing the counts on the nitrocellulose by the total counts and adjusting for the background. Results for binding of enriched ligand libraries from round 10 E2 and round 10 EF of the SELEX as compared to the GPVI-naïve starting ligand library are shown in FIG. 3.

[2] = molecular target: T1, Glycoprotein VI extracellular domain …; experiment: competition; 5' linker ligands assayed by competition; settings: tags: C-terminal His6; R&D Systems 3627-GP
[3] = molecular target: T1, Glycoprotein VI extracellular domain …; experiment: filter; buffer F, 37 C; settings: tags: C-terminal His6; R&D Systems 3627-GP; label: 5'-32P
[4] = molecular target: T1, Glycoprotein VI extracellular domain …; experiment: competition; competition with radiolabeled parent; settings: tags: C-terminal His6; R&D Systems 3627-GP
[5] = molecular target: T1, Glycoprotein VI extracellular domain …; experiment: filter; p374 states 2-4 nM; buffer F (150 mM NaCl, 2 mM CaCl2), 37 C; settings: tags: C-terminal His6; R&D Systems 3627-GP; label: 5'-32P
Description: as §1, with “The complexed RNA/GPVI protein mixture was then loaded over a Protean BA85 nitrocellulose membrane, overlayed on a Genescreen Plus Nylon membrane, in a 96 well vacuum manifold system with washing.” left out, “Results for binding of enriched ligand libraries from round 10 E2 and round 10 EF of the SELEX as compared to the GPVI-naïve starting ligand library are shown in FIG. 3.” left out

[6] = molecular target: T1, Glycoprotein VI extracellular domain …; experiment: filter; buffer F, 37 C; settings: tags: C-terminal His6; R&D Systems 3627-GP; label: 5'-32P
Description: as §1, with “RNA and GPVI dilutions were equilibrated at 37° C. prior to use. RNA (5 μL) was added to varying concentrations of GPVI (15 μL) at 37° C. and incubated together for 5 to 15 minutes. The complexed RNA/GPVI protein mixture was then loaded over a Protean BA85 nitrocellulose membrane, overlayed on a Genescreen Plus Nylon membrane, in a 96 well vacuum manifold system with washing.” left out, “Results for binding of enriched ligand libraries from round 10 E2 and round 10 EF of the SELEX as compared to the GPVI-naïve starting ligand library are shown in FIG. 3.” left out
The affinity of each of the anti-GPVI ligands for GPVI was determined by direct binding studies using radiolabeled trace ligand RNA and soluble GPVI, per the binding methodology described above in Example 1.

With GGGAGGACGGCGCUAACGCCUGGCAUAAGCCUCCC (ssRNA, RB448 with 2'-OMe throughout Stem 1) [RB453] the Kd [1] was < 10 nM.

In the case of GGGAGGACGGCGCGCCUGGCAUAAGCCUCCC (ssRNA, RB490 with 5' hexylamino linker) [RB508], the Kd [2] is reported as < 10 nM.

GGGAGGACGGCGCGCCUGGCAUAAGCCUCCC (ssRNA, RB524 with 2'-OMe A7,G9) [RB527] was tested, and the Kd [1] was > 40 nM.

GGGAGGACGGCGCGCCUGGCAUAAGCCUCCC (ssRNA, RB520 with 2'-OMe A7,G9) [RB523] was tested, and the Kd [1] was > 40 nM.

In the case of GGGAGGACGGCGCGCCUGGCAUAAGCCUCCC (ssRNA, RB524 with 2'-OMe A7, 2'-deoxy G9) [RB528], the Kd [1] is reported as > 40 nM.

GGGAGGACGGCGCGCCUGGCAUAAGCCUCCC (ssRNA, RB490 with 2'-OMe G6,A7,C8) [RB517] was tested, and the Kd [1] was > 40 nM.

Binder GGGAGGACGGCGCGCCUGGCAUAAGCCUCCC (ssRNA, RB490 with 2'-OMe G6,C15,A21,A23,A24,G25) [RB520] has a Kd [3] of ~6 nM.

For GGAGGACGGCGCGCCUGGCAUAAGCCUCC (ssRNA, RB540 with PS C7-G8) [RB548], the Kd [1] was 15.5 nM.

Work on GGAGGACGGCGCGCCUGGCAUAAGCCUCC (ssRNA, RB540 with PS G8-G9) [RB549] yielded a Kd [3] of ~6.48 nM.

With GGAGGACGGCGCGCCUGGCAUAAGCCUCC (ssRNA, RB549 with 2'-OMe G1 and 5' hexylamino linker) [RB560] the Kd [4] was < 10 nM.

In the case of GGAGGACGGCGCGCCUGGCAUAAGCCUCC (ssRNA, RB540 with PS G8-G9 and G9-C10) [RB566], the Kd [5] is reported as ~2.45 nM.

GGAGGACGGCGCGCCUGGCAUAAGCCUCC (ssRNA, RB566 with 2'-OMe G1 and 5' hexylamino linker) [RB567] was tested, and the Kd [4] was < 10 nM.

With GGAGGACGGCGCGCCUGGCAUAAGCCUCC (ssRNA, RB540 with 2'-OH G8) [RB551] the Kd [1] was 15.5 nM.

GGAGGACGGCGCGCCUGGCAUAAGCCUCC (ssRNA, RB551 with PS A6-C7) [RB553] gave a Kd [1] of 15.5 nM.

For GGGAGGACGUGCGGUCUAAGCUGCGCUGGCAUAAGCCUCCC (ssRNA, 2'-F C and U; 2'-OH A and G) [EF-31 T4 (RB441)], the Kd [1] was > 40 nM.

B1: EF-2 (RB427) (ssRNA)
RNA: GGGAGGACGAUGCGGUGCCAAAACACCCGUCUUGCAUAAGCCUCCUACGGCAACUCAGACGACUCGCUGAGGAUCCGAGA
modifications: 2'-F C and U; 2'-OH A and G
Work on B1 yielded a Kd [6] of 15.5 nM.

GGGAGGACGGCCUAAGCCUGGCAUAAGCCUCCC (ssRNA, 2'-F C and U; 2'-OH A and G) [EF-31 T8] was tested, and the Kd [1] was > 40 nM.

With GGAGGACGGCGCGCCUGGCAUAAGCCUCC (ssRNA, RB540 with 2'-OMe G1 and 5' hexylamino linker) [RB542] the Kd [4] was 15.5 nM.
